Experimental data published in patent US8663912B2, “Fluorogenic substrate for ADAMTS13” (Washington University, priority 2011, dated 2014).

Target: T1, ADAMTS13 (Homo sapiens, UniProt Q76LX8)
T1 sequence (Q76LX8 75-1427): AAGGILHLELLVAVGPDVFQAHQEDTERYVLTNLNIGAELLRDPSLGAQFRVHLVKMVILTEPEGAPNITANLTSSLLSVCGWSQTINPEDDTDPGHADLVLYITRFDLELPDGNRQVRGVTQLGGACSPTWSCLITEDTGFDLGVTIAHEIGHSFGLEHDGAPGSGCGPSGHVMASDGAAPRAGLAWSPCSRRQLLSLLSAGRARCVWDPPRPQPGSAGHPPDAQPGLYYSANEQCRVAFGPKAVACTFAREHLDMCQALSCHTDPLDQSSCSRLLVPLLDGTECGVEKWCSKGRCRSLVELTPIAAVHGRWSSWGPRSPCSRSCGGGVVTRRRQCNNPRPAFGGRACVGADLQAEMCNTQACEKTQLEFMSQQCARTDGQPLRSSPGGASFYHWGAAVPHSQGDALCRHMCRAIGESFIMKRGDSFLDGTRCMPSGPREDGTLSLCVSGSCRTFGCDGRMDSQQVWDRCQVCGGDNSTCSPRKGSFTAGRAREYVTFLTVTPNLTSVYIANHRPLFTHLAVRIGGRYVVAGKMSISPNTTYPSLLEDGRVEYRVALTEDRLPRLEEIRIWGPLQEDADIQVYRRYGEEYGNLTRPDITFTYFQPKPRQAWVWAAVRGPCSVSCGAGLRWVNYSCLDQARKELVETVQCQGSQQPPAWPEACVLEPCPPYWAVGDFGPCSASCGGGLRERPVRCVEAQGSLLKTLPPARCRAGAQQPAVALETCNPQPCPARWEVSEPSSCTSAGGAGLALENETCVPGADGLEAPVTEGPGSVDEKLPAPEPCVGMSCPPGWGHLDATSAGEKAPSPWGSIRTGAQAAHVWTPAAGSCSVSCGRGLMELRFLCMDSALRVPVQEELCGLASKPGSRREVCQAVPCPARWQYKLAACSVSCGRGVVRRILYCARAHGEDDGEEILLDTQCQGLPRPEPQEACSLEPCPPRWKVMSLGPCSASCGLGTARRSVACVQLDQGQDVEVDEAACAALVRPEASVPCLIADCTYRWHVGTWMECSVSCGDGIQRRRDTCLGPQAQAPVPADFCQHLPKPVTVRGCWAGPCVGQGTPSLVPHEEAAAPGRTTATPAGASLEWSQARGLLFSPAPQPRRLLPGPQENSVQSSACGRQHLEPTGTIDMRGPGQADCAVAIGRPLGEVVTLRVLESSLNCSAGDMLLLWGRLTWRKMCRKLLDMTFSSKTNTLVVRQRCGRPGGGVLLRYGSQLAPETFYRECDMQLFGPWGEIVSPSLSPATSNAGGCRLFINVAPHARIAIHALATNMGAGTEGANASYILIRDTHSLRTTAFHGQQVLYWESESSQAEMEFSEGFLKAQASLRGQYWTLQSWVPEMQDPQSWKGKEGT
Assay: Effect of bilirubin and hemoglobin on FRETS-rVWF71 ADAMTS13 assays
Type: biochemical
Design: FRETS-rVWF71 cleavage by plasma ADAMTS13 (50 μL) was assessed in 200 μL reactions; from tissue; host or cells: human plasma or serum (pooled normal plasma, healthy donors, TTP patients)

Which “IC50 for inhibition of ADAMTS13 activity” value (FRETS-rVWF71 substrate) does the source give for hemoglobin here?
The value was 10-15 g/L.

What about the “effect on detection of FRETS-rVWF71 cleavage products” value (hemoglobin ≦20 g/L) of the same substance?
The value was “did not affect”.
